Laboratory results from US9994616B2, “c-Met protein agonist” (The University of Tokyo, priority 2013, dated 2018).
Bridges are numbered along the chain shown (N, C = ends). Roman numbers before positions name the chains, in order. Where no end group is shown, it is not given here. [ ]: non-standard residue; d: D form. fluorescein = fluorescein fluorescent label attached to the peptide; βAla = NCCC(=O)O

How the values were obtained:
[1] = system: human c-Met expressing cells (human SNU-638 cells); assay: Localization of fluorescein-modified peptides on c-Met expressing cells (confocal microscopy); format: cell-based; conditions: 1 μM fluorescein peptide, FIG. 2A
Protocol: To human c-Met expressing cells (human SNU-638 cells) or human c-Met non-expressing cells (human SNU-216 cells) cultured on a glass-bottom dish were added a RPMI1640 medium containing 1 mg/L of Hoechst 33342, a nuclear staining reagent, an anti-human c-Met antibody, and 1 uM of L5-2-fluorescein, D4-3-fluorescein, D5-4-fluorescein, D4-3NMe-fluorescein, or D4-3scr-fluorescein and the resulting mixture was incubated in 5% CO2 at 37° C. for 5 minutes. Then, a RPMI1640 medium containing an HRP-anti-rat secondary antibody and 1 μM of L5-2-fluorescein, D4-3-fluorescein, D5-4-fluorescein, D4-3NMe-fluorescein, or D4-3scr-fluorescein was added and the resulting mixture was incubated in 5% CO2 at 37° C. for 5 minutes.
The cells were washed three times with a D-MEM medium and were microscopically observed in a new RPMI1640 medium. The localization of the peptide was observed using a confocal fluorescence microscope for the microscopic observation.

human Hcc-827 cells = assay: Cell growth of Iressa-inhibited Hcc-827 cells (MTS assay); format: cell-based; conditions: Table 13, Hcc-827 cells inhibited by Iressa
Protocol: Dimeric peptides were added to human Hcc-827 cells whose cell growth was inhibited by the addition of Iressa and the resulting mixture was cultured to activate the cell growth ability via a c-Met signaling pathway. The cell count of the thus-cultured cells was quantitatively determined by the assay using MTS (3-(4,5-dimethylthiazol-2-yl)-5-(3carboxymethoxyphenyl)-2-(4-sulphophenyl)-2H-tetrazolium, inner salt).

c-Met-Fc = c-Met-Fc (Homo sapiens, UniProt P08581); assay: Binding ability by surface plasmon resonance (SPR, Biacore); conditions: Table 11, monomer and dimeric peptides
c-Met-Fc, sequence (P08581 with tags, fused parts or gaps limits assumed): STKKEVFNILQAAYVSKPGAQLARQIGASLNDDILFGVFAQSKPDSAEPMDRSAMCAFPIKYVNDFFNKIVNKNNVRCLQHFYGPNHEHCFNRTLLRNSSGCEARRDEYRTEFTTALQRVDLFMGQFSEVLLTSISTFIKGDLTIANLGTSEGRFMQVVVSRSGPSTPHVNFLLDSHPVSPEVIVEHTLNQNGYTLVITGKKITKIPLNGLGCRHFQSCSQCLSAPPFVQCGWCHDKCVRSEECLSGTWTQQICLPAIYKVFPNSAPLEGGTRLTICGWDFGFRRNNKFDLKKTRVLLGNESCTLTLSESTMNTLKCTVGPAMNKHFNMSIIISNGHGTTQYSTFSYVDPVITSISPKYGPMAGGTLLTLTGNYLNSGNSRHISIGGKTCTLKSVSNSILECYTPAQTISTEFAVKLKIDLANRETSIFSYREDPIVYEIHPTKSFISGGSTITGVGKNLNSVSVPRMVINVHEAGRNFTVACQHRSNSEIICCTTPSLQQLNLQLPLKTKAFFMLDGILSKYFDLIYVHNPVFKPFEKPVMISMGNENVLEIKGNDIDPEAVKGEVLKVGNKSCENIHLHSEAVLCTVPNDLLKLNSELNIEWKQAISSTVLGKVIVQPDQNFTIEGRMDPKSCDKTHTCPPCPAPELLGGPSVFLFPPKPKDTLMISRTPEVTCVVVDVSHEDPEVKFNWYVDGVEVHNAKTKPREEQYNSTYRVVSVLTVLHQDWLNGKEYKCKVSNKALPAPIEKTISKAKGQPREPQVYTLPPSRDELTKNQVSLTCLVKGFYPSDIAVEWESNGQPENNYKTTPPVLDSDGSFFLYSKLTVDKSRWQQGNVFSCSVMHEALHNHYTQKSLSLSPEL
c-Met-Fc, sequence (P08581 25-307 limits assumed): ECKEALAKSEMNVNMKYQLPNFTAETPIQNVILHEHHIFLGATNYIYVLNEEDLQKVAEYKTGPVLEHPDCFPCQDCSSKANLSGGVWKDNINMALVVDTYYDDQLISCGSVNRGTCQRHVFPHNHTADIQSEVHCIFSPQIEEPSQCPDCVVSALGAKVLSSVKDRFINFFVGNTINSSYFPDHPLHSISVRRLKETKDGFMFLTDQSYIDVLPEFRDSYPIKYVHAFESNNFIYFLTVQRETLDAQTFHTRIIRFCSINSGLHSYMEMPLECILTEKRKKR
Protocol: Binding ability of the thioether macrocyclic peptide was evaluated by SPR measurement using Biacore (GE Healthcare).
As a sensor chip, Sensor Chip CM5 was used and an anti-IgG antibody was immobilized on a measurement lane and a control lane by using Human Antibody Capture Kit.
On the measurement lane was immobilized c-Met-Fc, while on the control lane was immobilized Fc protein.
As a running buffer, HBS-EP+ buffer containing 0.1% DMSO was used and a dissociation constant of the thioether macrocyclic peptide was calculated at 5 different concentrations by using the single-kinetics method.

c-Met [2] = molecular target: T1, c-Met (Homo sapiens, UniProt P08581); assay: Activity of dimeric peptide by ELISA (c-Met phosphorylation level in EHMES-1 cells); format: cell-based; conditions: for Activity (c-Met phosphorylation level by ELISA): Table 12, EHMES-1 cells, 10 minutes stimulation; for c-Met phosphorylation: Table 13
T1 construct: endogenous in cells; host or cells: EHMES-1 (human mesothelioma)
T1 sequence (P08581 25-1390): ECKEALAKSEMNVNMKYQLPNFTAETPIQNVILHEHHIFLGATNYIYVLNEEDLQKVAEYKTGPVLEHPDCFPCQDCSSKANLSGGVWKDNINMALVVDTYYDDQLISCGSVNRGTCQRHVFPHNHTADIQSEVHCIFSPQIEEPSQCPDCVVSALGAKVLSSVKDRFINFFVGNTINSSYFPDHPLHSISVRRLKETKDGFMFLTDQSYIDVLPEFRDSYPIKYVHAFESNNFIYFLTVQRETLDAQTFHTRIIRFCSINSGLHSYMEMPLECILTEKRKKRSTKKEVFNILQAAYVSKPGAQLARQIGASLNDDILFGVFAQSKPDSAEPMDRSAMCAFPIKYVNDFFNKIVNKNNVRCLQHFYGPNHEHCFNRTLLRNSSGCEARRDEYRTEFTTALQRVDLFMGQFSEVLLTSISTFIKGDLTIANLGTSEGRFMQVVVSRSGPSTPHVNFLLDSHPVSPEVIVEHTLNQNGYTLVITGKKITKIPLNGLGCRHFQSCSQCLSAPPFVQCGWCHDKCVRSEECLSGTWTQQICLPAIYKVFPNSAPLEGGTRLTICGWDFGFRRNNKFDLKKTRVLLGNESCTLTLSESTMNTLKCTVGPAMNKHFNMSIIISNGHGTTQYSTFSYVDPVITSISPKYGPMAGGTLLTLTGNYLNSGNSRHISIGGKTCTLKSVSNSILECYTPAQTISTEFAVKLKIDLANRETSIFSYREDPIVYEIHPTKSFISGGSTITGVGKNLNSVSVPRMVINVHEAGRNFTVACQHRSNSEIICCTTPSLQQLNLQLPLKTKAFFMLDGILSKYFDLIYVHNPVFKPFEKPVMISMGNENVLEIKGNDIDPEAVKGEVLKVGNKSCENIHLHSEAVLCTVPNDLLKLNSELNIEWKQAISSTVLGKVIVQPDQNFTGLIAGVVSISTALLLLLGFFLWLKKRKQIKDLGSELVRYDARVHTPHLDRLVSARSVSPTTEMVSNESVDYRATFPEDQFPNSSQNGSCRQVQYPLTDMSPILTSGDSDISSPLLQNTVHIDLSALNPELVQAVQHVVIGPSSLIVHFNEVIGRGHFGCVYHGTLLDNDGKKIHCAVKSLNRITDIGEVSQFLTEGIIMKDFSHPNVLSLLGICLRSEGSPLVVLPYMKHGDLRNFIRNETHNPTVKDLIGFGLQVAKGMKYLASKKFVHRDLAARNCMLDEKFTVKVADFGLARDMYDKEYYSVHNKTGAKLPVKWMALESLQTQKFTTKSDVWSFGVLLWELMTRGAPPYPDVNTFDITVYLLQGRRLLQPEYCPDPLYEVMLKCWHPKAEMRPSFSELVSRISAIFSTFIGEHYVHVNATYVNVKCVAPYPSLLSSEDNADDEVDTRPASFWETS
Protocol: Each dimeric peptide was added to human EHMES-1 cells and the mixture was incubated for 10 minutes to stimulate the cells.
As a control experiment, a recombinant human HGF protein was added and the mixture was incubated for 10 minutes to stimulate cells.
A phosphorylation level of c-Met was quantitatively analyzed using ELISA.

human HuCCT1 cells = assay: Cell migration of HuCCT1 cells on pore-containing plate; format: cell-based; conditions: Table 13
Protocol: In addition, human HuCCT1 cells were seeded on a pore-containing plate and cultured in a medium mixed with each of the dimeric peptides to evaluate activation of cell migration ability.

[3] = system: c-Met, Gab1, Akt, and Erk proteins; assay: Activity of dimeric peptide by western blotting in EHMES-1 cells; format: cell-based, human; conditions: 10 minutes, FIG. 5
Protocol: (§1) The optimum concentration of each of the dimeric peptides was added to cultured EHMES-1 cells derived from human mesothelioma and the resulting mixture was incubated for 10 minutes to stimulate the cells. As a control experiment, 2 nM of a recombinant human HGF protein was added, followed by incubation for 10 minutes.
The cells were lysed and the resulting lysate was electrophoresed using a 10% modified polyacrylamide gel. After transcription of the protein thus separated to an Immobilon-P PVDF membrane (Millipore) and blocking with PVDF Blocking Reagent for Can Get Signal (TOYOBO), a primary antibody reaction of it was performed overnight at 4° C. in Can Get Signal Solution 1 (TOYOBO). As the antibody, anti-Met (Millipore, EP1454Y), anti-Phospho-Met Tyr1234/1235 (Cell Signaling Technology, D26), anti-Phospho-Met Tyr1349 (Millipore, 07-808), anti-Akt (Cell Signaling Technology, 11E7), anti-Phospho-Akt Thr308 (Cell Signaling Technology, D25E6), anti-Erk1/2 (Cell Signaling Technology, 137F5), anti-Phospho-Erk1/2 Thr202/Tyr204 (Cell Signaling Technology, D13.14.4E), anti-Gab1 (Cell Signaling Technology), or anti-Phospho-Gab1 Tyr 627 (Cell Signaling Technology, C32H2) was used. Then, a secondary antibody reaction was performed at room temperature for one hour in Can Get Signal Solution 2 (TOYOBO) by using an anti-rabbit antibody HRP conjugate. […]

c-Met [4] = molecular target: T1, c-Met; assay: Activity of dimeric peptide by Phospho-RTK array in EHMES-1 cells; format: cell-based; conditions: optimum concentration, 10 minutes, FIG. 4
Protocol: as §1, with “each” for “each of the”, “peptide” for “peptides”, “nM” for “nM of a”
The resulting cells were lyzed and the lysate thus obtained was analyzed using Phospho-RTK array (R&D Systems) to evaluate whether or not the c-Met of the cells was phosphorylated.

Substance	ka (c-Met-Fc)	kd (c-Met-Fc)	Activity (c-Met phosphorylation level by ELISA) (c-Met [2])	c-Met phosphorylation (c-Met [2])	Binding to c-Met expressing cells [1]	Cell growth (human Hcc-827 cells)	further results
D4-3NMe-fluorescein: Fluorescein-modified N-methylated D4-3 peptide ({CH2CO}-[dY]RQFNRRTHEVWNLDCGK(fluorescein); thioether N-16; also: two amino acids N-methylated (N6 + N16))	–	–	–	–	colocalized with and bind to	–	–
D4-3-fluorescein: Fluorescein-modified D4-3 peptide, fluorescein on the side chain of C-terminal lysine ({CH2CO}-[dY]RQFNRRTHEVWNLDCGK(fluorescein); thioether N-16)	–	–	–	–	colocalized with and bind to	–	–
D4-3scr-fluorescein: Fluorescein-modified c-Met-unbinding peptide ({CH2CO}-YERVNHLFRNQTWDRCGK(fluorescein); thioether N-16 (inferred)) [reference compound]	–	–	–	–	does not bind	–	–
L5-2 BMH: dimeric peptide: two L5-2 macrocycles linked through C-terminal Cys by BMH linker ({CH2CO}-YISWNEFNSPNWRFITCG[βAla]C-NH2; thioether N-17; not fully specified (residue 20); also: dimer: two copies joined by BMH, linker at 20 via BMH, other end not in the chain)	0.083 10^6 M^−1s^−1	0.054 10^−2 s^−1	Low	Promote	–	Activate	–
D5-4 BMH: dimeric peptide: two D5-4 macrocycles linked through C-terminal Cys by BMH linker (peptide 1 {CH2CO}-[dY]WYYAWDQTYKAFPCG; peptide 2 {CH2CO}-[dY]WYYAWDQTYKAFPCG; thioether I:N-I:15, II:N-II:15; not fully specified (C-terminus); also: dimer: two chains joined by BMH through an added C-terminal Cys not in the letters)	0.046 10^6 M^−1s^−1	0.055 10^−2 s^−1	High	Promote	–	Activate	–
HGF: recombinant human HGF protein, natural ligand of c-Met, control	–	–	–	–	–	–	Phosphorylation of c-Met, Gab1, Akt, and Erk proteins (western blotting) [3]: promote phosphorylation; Autophosphorylation of c-Met (Phospho-RTK array) (c-Met [4]): autophosphorylation is induced

Continued, in another order:

ka (c-Met-Fc)	kd (c-Met-Fc)	Activity (c-Met phosphorylation level by ELISA) (c-Met [2])	c-Met phosphorylation (c-Met [2])	Substance	Binding to c-Met expressing cells [1]	Cell growth (human Hcc-827 cells)	further results
5.3 10^6 M^−1s^−1	1.1 10^−2 s^−1	High	Promote	D5-4 Bis-MAL-PEG11: dimeric peptide: two D5-4 macrocycles linked through C-terminal Cys by Bis-MAL-PEG11 linker (peptide 1 {CH2CO}-[dY]WYYAWDQTYKAFPCG; peptide 2 {CH2CO}-[dY]WYYAWDQTYKAFPCG; thioether I:N-I:15, II:N-II:15; not fully specified (C-terminus); also: dimer: two chains joined by Bis-MAL-PEG11 through an added C-terminal Cys not in the letters)	–	–	Cell migration (human HuCCT1 cells): Activate
2.0 10^6 M^−1s^−1	0.091 10^−2 s^−1	Low	Promote	D4-3 BMH: dimeric peptide: two D4-3 macrocycles linked through C-terminal Cys by BMH linker ({CH2CO}-[dY]RQFNRRTHEVWNLDCGC; thioether N-16; not fully specified (residue 18); also: dimer: two copies joined by BMH, linker at 18 via BMH, other end not in the chain)	–	Activate	–
